Measured values as given in patent US20230227559A1 (INSTITUT PASTEUR, published 2023).

T1: hFcgRIIA R131 (human, UniProt P12318)
T1 construct: on the cell surface of CHO transfectants, FLAG tagged; Named only on the sheet; one member of the group m10; also called hFcγRIIA R131; CD32A R131
T1 sequence (receptor chain, looked up): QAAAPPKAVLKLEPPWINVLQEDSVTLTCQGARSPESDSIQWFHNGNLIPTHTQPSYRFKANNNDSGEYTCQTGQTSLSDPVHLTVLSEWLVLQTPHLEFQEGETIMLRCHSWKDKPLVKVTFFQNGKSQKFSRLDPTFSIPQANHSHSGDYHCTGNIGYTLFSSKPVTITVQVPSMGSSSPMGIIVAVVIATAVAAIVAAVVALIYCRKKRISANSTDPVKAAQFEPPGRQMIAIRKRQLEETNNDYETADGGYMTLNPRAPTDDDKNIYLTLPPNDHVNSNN

T2: hFcgRIIB (human, UniProt P31994)
T2 construct: on the cell surface of CHO transfectants, FLAG tagged; Named only on the sheet; one member of the group m10; also called hFcγRIIB; CD32B
T2 sequence (receptor chain, looked up): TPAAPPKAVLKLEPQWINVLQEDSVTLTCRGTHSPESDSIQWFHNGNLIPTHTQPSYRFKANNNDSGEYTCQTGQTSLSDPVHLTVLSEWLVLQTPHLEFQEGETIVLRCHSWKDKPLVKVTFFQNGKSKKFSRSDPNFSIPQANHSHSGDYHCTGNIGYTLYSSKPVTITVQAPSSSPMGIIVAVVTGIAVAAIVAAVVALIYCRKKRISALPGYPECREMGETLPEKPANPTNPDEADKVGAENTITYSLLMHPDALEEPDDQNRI

T3: hFcgRIIA H131 (human, UniProt P12318)
T3 construct: on the cell surface of CHO transfectants, FLAG tagged; Named only on the sheet; one member of the group m10; also called hFcγRIIA H131; CD32A H131
T3 sequence (receptor chain, looked up): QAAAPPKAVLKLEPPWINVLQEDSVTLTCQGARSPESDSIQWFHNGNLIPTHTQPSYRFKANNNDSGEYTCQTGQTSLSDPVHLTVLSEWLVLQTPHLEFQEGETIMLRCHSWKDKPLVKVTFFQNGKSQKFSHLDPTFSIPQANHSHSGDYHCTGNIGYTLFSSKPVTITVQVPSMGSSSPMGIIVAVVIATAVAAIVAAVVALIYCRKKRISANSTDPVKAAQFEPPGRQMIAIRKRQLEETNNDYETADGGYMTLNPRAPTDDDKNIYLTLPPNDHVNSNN


Columns and labels:
[1] = target: T4, His-tagged ectodomains of hFcγRIIIA variant V158 (human, UniProt P08637 19-208); assay: SPR (ProteON), His-tagged hFcγRIIIA V158 ectodomains on chip, mAb injected
T4 construct: also called human CD16A V158 ectodomains; hFcγRIIIA (V158 variant); not shown: His tag
T4 sequence (P08637 other isoform, or with tags, fused parts or gaps mutant): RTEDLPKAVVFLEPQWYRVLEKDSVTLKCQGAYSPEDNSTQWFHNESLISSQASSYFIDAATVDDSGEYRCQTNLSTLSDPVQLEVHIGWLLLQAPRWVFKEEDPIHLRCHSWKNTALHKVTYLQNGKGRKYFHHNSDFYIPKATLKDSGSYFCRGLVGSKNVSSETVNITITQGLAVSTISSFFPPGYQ
Protocol: Surface Plasmon Resonance analysis. His-tagged ectodomains of hFcγRIIIA variant V158 were covalently immobilized on a His-tag capture sensor chip for a ProteON instrument (BioRad). A range of dilutions of anti-hFcγRIII mAbs were injected onto the chip. Background binding was measured on an empty HTE sensor chip channel and subtracted from the binding values observed on coated channels. The resulting sensorgrams were fitted using a “1:1 binding with mass transfer” model, and association (Kₒₙ), dissociation (Koff) constants and KD were calculated as the […] using BIAevaluation 4.1 software.
The affinity of the antibodies of the invention for the hFcγRIIIA (V158 variant) has been assessed by SPR as detailed above.

[2] = target: T5, hFcγRIIIA V158 (FLAG tagged, expressed on CHO cells) (human, UniProt P08637 17-254); assay: FACS on CHO cells expressing FLAG tagged hFcγRIIIA V176 (V158 in the text); mAb at 1 µg/ml, PE-labelled F(ab')2 donkey anti-human IgG at 5 µg/ml
T5 construct: whole, on cells; also called CD16A V158
T5 sequence (P08637 17-254 F176V limits assumed): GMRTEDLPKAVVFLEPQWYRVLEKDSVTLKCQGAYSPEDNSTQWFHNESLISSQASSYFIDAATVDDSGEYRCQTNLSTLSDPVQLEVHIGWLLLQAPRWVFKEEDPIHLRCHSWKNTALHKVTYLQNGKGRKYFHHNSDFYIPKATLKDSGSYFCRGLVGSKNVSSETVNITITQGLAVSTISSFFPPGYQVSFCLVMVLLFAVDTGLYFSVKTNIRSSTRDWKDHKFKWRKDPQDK
Protocol: (§1) Specificity. A collection of Chinese Hamster Ovarian (CHO) cells expressing FLAG tagged human FcγR (Bruhns P. et al, 2009) was used to analyze the specificity of the antibody against the hFcγR family. Cells were incubated on ice for 30 min with mAbs at 1 μg/ml, washed 3 time in PBS containing 0.5% BSA and 2 mM EDTA (MACS buffer) and then incubated on ice for 30 min with 5 μg/ml PE-labelled F(ab′)₂ Donkey Anti-Human IgG (Jackson ImmunoResearch). Data acquisition was performed on a MACSQuant flow cytometer (Miltenyi Biotec), and data analyzed using the Flowjo Software (FlowJo).
(§2) The specificity of the chimeric modified antibody 3G4NA towards the members of the hFcγR family has been assessed as exposed in the Material & Methods part, in CHO cells expressing FLAG tagged human FcγR. The cells were incubated with 3G4NA mAbs at 1 μg/ml, washed and then incubated on ice for 30 min with 5 μg/ml PE-labelled F(ab′)₂ Donkey Anti-Human IgG. The FACS results are disclosed on FIG. 1.

[3] = target: T6, hFcγRI (FLAG tagged, expressed on CHO cells) (human, UniProt P12314 16-374); assay: FACS on CHO cells expressing FLAG tagged hFcγRI; mAb at 1 µg/ml, PE-labelled F(ab')2 donkey anti-human IgG at 5 µg/ml
T6 construct: whole, on cells; also called CD64
T6 sequence (P12314 16-374): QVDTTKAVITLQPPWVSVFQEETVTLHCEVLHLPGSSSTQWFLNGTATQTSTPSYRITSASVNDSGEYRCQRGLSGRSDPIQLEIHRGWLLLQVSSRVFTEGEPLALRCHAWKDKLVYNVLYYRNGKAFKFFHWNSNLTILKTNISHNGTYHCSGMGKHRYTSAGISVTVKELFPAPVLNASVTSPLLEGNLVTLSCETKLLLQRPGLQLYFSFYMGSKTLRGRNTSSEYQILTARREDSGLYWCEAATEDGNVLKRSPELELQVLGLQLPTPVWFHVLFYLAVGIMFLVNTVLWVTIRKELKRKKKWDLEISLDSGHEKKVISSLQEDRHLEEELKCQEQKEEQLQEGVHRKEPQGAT
Protocol: as §1, §2

[4] = target: T1, hFcgRIIA R131; assay: FACS on CHO cells expressing FLAG tagged hFcγRIIA R131; mAb at 1 µg/ml, PE-labelled F(ab')2 donkey anti-human IgG at 5 µg/ml
Protocol: as §1, §2

[5] = target: T2, hFcgRIIB; assay: FACS on CHO cells expressing FLAG tagged hFcγRIIB; mAb at 1 µg/ml, PE-labelled F(ab')2 donkey anti-human IgG at 5 µg/ml
Protocol: as §1, §2

[6] = target: T3, hFcgRIIA H131; assay: FACS on CHO cells expressing FLAG tagged hFcγRIIA H131; mAb at 1 µg/ml, PE-labelled F(ab')2 donkey anti-human IgG at 5 µg/ml
Protocol: as §1, §2

[7] = target: T7, hFcgRIIIA F176 (human, UniProt P08637); assay: FACS on CHO cells expressing FLAG tagged hFcγRIIIA F176; mAb at 1 µg/ml, PE-labelled F(ab')2 donkey anti-human IgG at 5 µg/ml
T7 construct: on the cell surface of CHO transfectants, FLAG tagged; also called hFcγRIIIA F158; CD16A F158
T7 sequence (P08637 17-254 limits assumed): as the sequence (P08637 17-254 F176V limits assumed) above, with V160F counted along it
Protocol: as §1, §2

| Kd [1] [nM] | koff [1] [s⁻¹] | kon [1] [M⁻¹ s⁻¹] | binding result [2] | binding result [3] | binding result [4] | binding result [5] | binding result [6] | binding result [7] | Binder |
| --- | --- | --- | --- | --- | --- | --- | --- | --- | --- |
| 7.9 | 0.001 | 130000 | – | – | – | – | – | – | Chimeric 3G4 hIgG1 (chimeric mouse-human IgG1 kappa anti-hFcγRIII mAb, clone 3G4) (antibody, also called mouse-human 3G4; 3G4 mouse-human chimeric monoclonal antibody) heavy: not shown light: DIVLTQSPSSISASLGDRITITCQATQDIIKNLNWYQQKPGKPPSFLIYYATEVAEGVPSRFSGSGSGSDYSLTISNLESEDFADYYCLQFYEFPYTFGGGTKLEIKRTVAAPSVFIFPPSDEQLKSGTASVVCLLNNFYPREAKVQWKVDNALQSGNSQESVTEQDSKDSTYSLSSTLTLSKADYEKHKVYACEVTHQGLSSPVTKSFNRGEC |
| 16 | 0.00034 | 19000 | binds | binds | no binding (tested: 1 µg/ml) | no binding (tested: 1 µg/ml) | no binding (tested: 1 µg/ml) | binds | Chimeric 3G4 hIgG1 N297A format (chimeric modified mouse-human antibody 3G4NA) (antibody, also called 3G4N297A; mAb 3G4 N297A) heavy: not shown light: DIVLTQSPSSISASLGDRITITCQATQDIIKNLNWYQQKPGKPPSFLIYYATEVAEGVPSRFSGSGSGSDYSLTISNLESEDFADYYCLQFYEFPYTFGGGTKLEIKRTVAAPSVFIFPPSDEQLKSGTASVVCLLNNFYPREAKVQWKVDNALQSGNSQESVTEQDSKDSTYSLSSTLTLSKADYEKHKVYACEVTHQGLSSPVTKSFNRGEC |
